Data from the supplement of paper PMC5998384.

Key:
HeLa Kyoto [1] = assay: melting temperature (median over replicates), in situ; higher = more thermally stable
HeLa Kyoto [2] = assay: solubility change mitosis vs G1/S (difference of NP-40 vs SDS log2 ratios) (log2 ratio difference); higher = more soluble in mitosis
HeLa Kyoto [3] = assay: solubility in G1/S (NP-40 vs SDS abundance) (log2 ratio); higher = more soluble; conditions: cell cycle stage: G1/S
HeLa Kyoto [4] = assay: thermal stability score vs G1/S (z-score of summed log2 fold changes over temperatures); higher = more thermally stable than in G1/S
[5] = cell cycle stage: early G1 (4.5 h after nocodazole release)
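Throughout, for melting temperature (median over replicates), in situ: HeLa Kyoto cells synchronized by double thymidine or nocodazole block, proteins quantified by TMT10plex mass spectrometry, three independent biological replicates.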
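Throughout, for solubility change mitosis vs G1/S (difference of NP-40 vs SDS log2 ratios): synchronized HeLa Kyoto cells (double thymidine block for G1/S, nocodazole release for mitosis), protein amounts in NP-40 versus SDS lysates quantified by mass spectrometry, three biological replicates.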
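Throughout, for solubility in G1/S (NP-40 vs SDS abundance): HeLa Kyoto cells arrested at G1/S by double thymidine block, proteins quantified by TMT10plex mass spectrometry in mild NP-40 versus SDS extracts, three biological replicates.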
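Throughout, for thermal stability score vs G1/S (z-score of summed log2 fold changes over temperatures): synchronized HeLa Kyoto cells, proteins quantified by TMT10plex mass spectrometry, three biological replicates, mitosis taken 0.5 h after nocodazole release, G1/S directly after double thymidine block.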

Substance | melting temperature (HeLa Kyoto [1]; cell cycle stage: G1/S) [°C] | melting temperature (HeLa Kyoto [1]; cell cycle stage: mitosis) [°C] | solubility change mitosis (log2) (HeLa Kyoto [2]) | solubility in G1/S (log2) (HeLa Kyoto [3]) | thermal stability score (HeLa Kyoto [4]; [5]) | thermal stability score (HeLa Kyoto [4]; cell cycle stage: mitosis)
MEGKWLLCMLLVLGTAIVEAHDGHDDDVIDIEDDLDDVIEEVEDSKPDTTAPPSSPKVTYKAPVPTGEVYFADSFDRGTLSGWILSKAKKDDTDDEIAKYDGKWEVEEMKESKLPGDKGLVLMSRAKHHAISAKLNKPFLFDTKPLIVQYEVNFQNGIECGGAYVKLLSKTPELNLDQFHDKTPYTIMFGPDKCGEDYKLHFIFRHKNPKTGIYEEKHAKRPDADLKTYFTDKKTHLYTLILNPDNSFEILVDQSVVNSGNLLNDMTPPVNPSREIEDPEDRKPEDWDERPKIPDPEAVKPDDWDEDAPAKIPDEEATKPEGWLDDEPEYVPDPDAEKPEDWDEDMDGEWEAPQIANPRCESAPGCGVWQRPVIDNPNYKGKWKPPMIDNPSYQGIWKPRKIPNPDFFEDLEPFRMTPFSAIGLELWSMTSDIFFDNFIICADRRIVDDWANDGWGLKKAADGAAEPGVVGQMIEAAEERPWLWVVYILTVALPVFLVILFCCSGKKQTSGMEYKKTDAPQPDVKEEEEEKEEEKDKGDEEEEGEEKLEEKQKSDAEEDGGTVSQEEEDRKPKAEEDEILNRSPRNRKPRRE [CANX] | 53.7 | 53.9 | -0.0953 | 0.339 | 2.71 | 3.35
MSRPLITRSPASPLNNQGIPTPAQLTKSNAPVHIDVGGHMYTSSLATLTKYPESRIGRLFDGTEPIVLDSLKQHYFIDRDGQMFRYILNFLRTSKLLIPDDFKDYTLLYEEAKYFQLQPMLLEMERWKQDRETGRFSRPCECLVVRVAPDLGERITLSGDKSLIEEVFPEIGDVMCNSVNAGWNHDSTHVIRFPLNGYCHLNSVQVLERLQQRGFEIVGSCGGGVDSSQFSEYVLRRELRRTPRVPSVIRIKQEPLD [KCTD1] | 58.7 | 55.9 | -0.267 | 0.464 | 0.414 | 0.162
MLRMRTAGWARGWCLGCCLLLPLSLSLAAAKQLLRYRLAEEGPADVRIGNVASDLGIVTGSGEVTFSLESGSEYLKIDNLTGELSTSERRIDREKLPQCQMIFDENECFLDFEVSVIGPSQSWVDLFEGQVIVLDINDNTPTFPSPVLTLTVEENRPVGTLYLLPTATDRDFGRNGIERYELLQEPGGGGSGGESRRAGAADSAPYPGGGGNGASGGGSGGSKRRLDASEGGGGTNPGGRSSVFELQVADTPDGEKQPQLIVKGALDREQRDSYELTLRVRDGGDPPRSSQAILRVLITDVNDNSPRFEKSVYEADLAENSAPGTPILQLRAADLDVGVNGQIEYVFGAATESVRRLLRLDETSGWLSVLHRIDREEVNQLRFTVMARDRGQPPKTDKATVVLNIKDENDNVPSIEIRKIGRIPLKDGVANVAEDVLVDTPIALVQVSDRDQGENGVVTCTVVGDVPFQLKPASDTEGDQNKKKYFLHTSTPLDYEATREFNVVIVAVDSGSPSLSSNNSLIVKVGDTNDNPPMFGQSVVEVYFPENNIPGERVATVLATDADSGKNAEIAYSLDSSVMGIFAIDPDSGDILVNTVLDREQTDRYEFKVNAKDKGIPVLQGSTTVIVQVADKNDNDPKFMQDVFTFYVKENLQPNSPVGMVTVMDADKGRNAEMSLYIEENNNIFSIENDTGTIYSTMSFDREHQTTYTFRVKAVDGGDPPRSATATVSLFVMDENDNAPTVTLPKNISYTLLPPSSNVRTVVATVLATDSDDGINADLNYSIVGGNPFKLFEIDPTSGVVSLVGKLTQKHYGLHRLVVQVNDSGQPSQSTTTLVHVFVNESVSNATAIDSQIARSLHIPLTQDIAGDPSYEISKQRLSIVIGVVAGIMTVILIILIVVMARYCRSKNKNGYEAGKKDHEDFFTPQQHDKSKKPKKDKKNKKSKQPLYSSIVTVEASKPNGQRYDSVNEKLSDSPSMGRYRSVNGGPGSPDLARHYKSSSPLPTVQLHPQSPTAGKKHQAVQDLPPANTFVGAGDNISIGSDHCSEYSCQTNNKYSKQMRLHPYITVFG [PCDH7] | 55.1 | 53.4 | -0.075 | 0.215 | -1.64 | -1.07
MTSIIKLTTLSGVQEESALCYLLQVDEFRFLLDCGWDEHFSMDIIDSLRKHVHQIDAVLLSHPDPLHLGALPYAVGKLGLNCAIYATIPVYKMGQMFMYDLYQSRHNTEDFTLFTLDDVDAAFDKIQQLKFSQIVNLKGKGHGLSITPLPAGHMIGGTIWKIVKDGEEEIVYAVDFNHKREIHLNGCSLEMLSRPSLLITDSFNATYVQPRRKQRDEQLLTNVLETLRGDGNVLIAVDTAGRVLELAQLLDQIWRTKDAGLGVYSLALLNNVSYNVVEFSKSQVEWMSDKLMRCFEDKRNNPFQFRHLSLCHGLSDLARVPSPKVVLASQPDLECGFSRDLFIQWCQDPKNSIILTYRTTPGTLARFLIDNPSEKITEIELRKRVKLEGKELEEYLEKEKLKKEAAKKLEQSKEADIDSSDESDIEEDIDQPSAHKTKHDLMMKGEGSRKGSFFKQAKKSYPMFPAPEERIKWDEYGEIIKPEDFLVPELQATEEEKSKLESGLTNGDEPMDQDLSDVPTKCISTTESIEIKARVTYIDYEGRSDGDSIKKIINQMKPRQLIIVHGPPEASQDLAECCRAFGGKDIKVYMPKLHETVDATSETHIYQVRLKDSLVSSLQFCKAKDAELAWIDGVLDMRVSKVDTGVILEEGELKDDGEDSEMQVEAPSDSSVIAQQKAMKSLFGDDEKETGEESEIIPTLEPLPPHEVPGHQSVFMNEPRLSDFKQVLLREGIQAEFVGGVLVCNNQVAVRRTETGRIGLEGCLCQDFYRIRDLLYEQYAIV [CPSF2] | 48.7 | 50.3 | 0.0805 | -0.409 | -0.0481 | 1.62
MAENGDNEKMAALEAKICHQIEYYFGDFNLPRDKFLKEQIKLDEGWVPLEIMIKFNRLNRLTTDFNVIVEALSKSKAELMEISEDKTKIRRSPSKPLPEVTDEYKNDVKNRSVYIKGFPTDATLDDIKEWLEDKGQVLNIQMRRTLHKAFKGSIFVVFDSIESAKKFVETPGQKYKETDLLILFKDDYFAKKNEERKQNKVEAKLRAKQEQEAKQKLEEDAEMKSLEEKIGCLLKFSGDLDDQTCREDLHILFSNHGEIKWIDFVRGAKEGIILFKEKAKEALGKAKDANNGNLQLRNKEVTWEVLEGEVEKEALKKIIEDQQESLNKWKSKGRRFKGKGKGNKAAQPGSGKGKVQFQGKKTKFASDDEHDEHDENGATGPVKRAREETDKEEPASKQQKTENGAGDQ [SSB] | 49.3 | 50.3 | -0.0733 | 0.66 | 2.85 | 0.442
MAAAAWLQVLPVILLLLGAHPSPLSFFSAGPATVAAADRSKWHIPIPSGKNYFSFGKILFRNTTIFLKFDGEPCDLSLNITWYLKSADCYNEIYNFKAEEVELYLEKLKEKRGLSGKYQTSSKLFQNCSELFKTQTFSGDFMHRLPLLGEKQEAKENGTNLTFIGDKTAMHEPLQTWQDAPYIFIVHIGISSSKESSKENSLSNLFTMTVEVKGPYEYLTLEDYPLMIFFMVMCIVYVLFGVLWLAWSACYWRDLLRIQFWIGAVIFLGMLEKAVFYAEFQNIRYKGESVQGALILAELLSAVKRSLARTLVIIVSLGYGIVKPRLGVTLHKVVVAGALYLLFSGMEGVLRVTGAQTDLASLAFIPLAFLDTALCWWIFISLTQTMKLLKLRRNIVKLSLYRHFTNTLILAVAASIVFIIWTTMKFRIVTCQSDWRELWVDDAIWRLLFSMILFVIMVLWRPSANNQRFAFSPLSEEEEEDEQKEPMLKESFEGMKMRSTKQEPNGNSKVNKAQEDDLKWVEENVPSSVTDVALPALLDSDEERMITHFERSKME [TMEM87A] | 59 | 60.5 | -0.117 | -0.0314 | -4.37 | -3.56
NCOR1 | 48.5 | 52.2 | 0.0133 | -0.0922 | 0.817 | 5.94
MAGGGGDLSTRRLNECISPVANEMNHLPAHSHDLQRMFTEDQGVDDRLLYDIVFKHFKRNKVEISNAIKKTFPFLEGLRDRDLITNKMFEDSQDSCRNLVPVQRVVYNVLSELEKTFNLPVLEALFSDVNMQEYPDLIHIYKGFENVIHDKLPLQESEEEEREERSGLQLSLEQGTGENSFRSLTWPPSGSPSHAGTTPPENGLSEHPCETEQINAKRKDTTSDKDDSLGSQQTNEQCAQKAEPTESCEQIAVQVNNGDAGREMPCPLPCDEESPEAELHNHGIQINSCSVRLVDIKKEKPFSNSKVECQAQARTHHNQASDIIVISSEDSEGSTDVDEPLEVFISAPRSEPVINNDNPLESNDEKEGQEATCSRPQIVPEPMDFRKLSTFRESFKKRVIGQDHDFSESSEEEAPAEASSGALRSKHGEKAPMTSRSTSTWRIPSRKRRFSSSDFSDLSNGEELQETCSSSLRRGSGSQPQEPENKKCSCVMCFPKGVPRSQEARTESSQASDMMDTMDVENNSTLEKHSGKRRKKRRHRSKVNGLQRGRKKDRPRKHLTLNNKVQKKRWQQRGRKANTRPLKRRRKRGPRIPKDENINFKQSELPVTCGEVKGTLYKERFKQGTSKKCIQSEDKKWFTPREFEIEGDRGASKNWKLSIRCGGYTLKVLMENKFLPEPPSTRKKRILESHNNTLVDPCEEHKKKNPDASVKFSEFLKKCSETWKTIFAKEKGKFEDMAKADKAHYEREMKTYIPPKGEKKKKFKDPNAPKRPPLAFFLFCSEYRPKIKGEHPGLSIDDVVKKLAGMWNNTAAADKQFYEKKAAKLKEKYKKDIAAYRAKGKPNSAKKRVVKAEKSKKKKEEEEDEEDEQEEENEEDDDK [SP100] | 51.9 | 51.9 | 0.113 | 0.0834 | -2.83 | -2.43
MICLVLTIFANLFPAACTGAHERTFLAVKPDGVQRRLVGEIVRRFERKGFKLVALKLVQASEELLREHYAELRERPFYGRLVKYMASGPVVAMVWQGLDVVRTSRALIGATNPADAPPGTIRGDFCIEVGKNLIHGSDSVESARREIALWFRADELLCWEDSAGHWLYE [NME3] | 55.7 | 56.8 | -0.0854 | -0.213 | -1.81 | -2.22
MSMEDYDFLFKIVLIGNAGVGKTCLVRRFTQGLFPPGQGATIGVDFMIKTVEINGEKVKLQIWDTAGQERFRSITQSYYRSANALILTYDITCEESFRCLPEWLREIEQYASNKVITVLVGNKIDLAERREVSQQRAEEFSEAQDMYYLETSAKESDNVEKLFLDLACRLISEARQNTLVNNVSSPLPGEGKSISYLTCCNFN [RAB30] | 51.3 | 51.7 | -0.0812 | -0.379 | 0.727 | 1.4
MADTTPNGPQGAGAVQFMMTNKLDTAMWLSRLFTVYCSALFVLPLLGLHEAASFYQRALLANALTSALRLHQRLPHFQLSRAFLAQALLEDSCHYLLYSLIFVNSYPVTMSIFPVLLFSLLHAATYTKKVLDARGSNSLPLLRSVLDKLSANQQNILKFIACNEIFLMPATVFMLFSGQGSLLQPFIYYRFLTLRYSSRRNPYCRTLFNELRIVVEHIIMKPACPLFVRRLCLQSIAFISRLAPTVP [TMEM33] | 55 | 53.5 | -0.177 | 0.0522 | 2.25 | 2.45
